The text below walks through data of US20250101135A1 (Hoffmann-La Roche, published 2025).

The target of assay [1] is T1, human CEA (CEACAM5) on tumor cells (human, UniProt P06731 35-685).
T1 construct: also called MKN45; MKN-45
T1 sequence: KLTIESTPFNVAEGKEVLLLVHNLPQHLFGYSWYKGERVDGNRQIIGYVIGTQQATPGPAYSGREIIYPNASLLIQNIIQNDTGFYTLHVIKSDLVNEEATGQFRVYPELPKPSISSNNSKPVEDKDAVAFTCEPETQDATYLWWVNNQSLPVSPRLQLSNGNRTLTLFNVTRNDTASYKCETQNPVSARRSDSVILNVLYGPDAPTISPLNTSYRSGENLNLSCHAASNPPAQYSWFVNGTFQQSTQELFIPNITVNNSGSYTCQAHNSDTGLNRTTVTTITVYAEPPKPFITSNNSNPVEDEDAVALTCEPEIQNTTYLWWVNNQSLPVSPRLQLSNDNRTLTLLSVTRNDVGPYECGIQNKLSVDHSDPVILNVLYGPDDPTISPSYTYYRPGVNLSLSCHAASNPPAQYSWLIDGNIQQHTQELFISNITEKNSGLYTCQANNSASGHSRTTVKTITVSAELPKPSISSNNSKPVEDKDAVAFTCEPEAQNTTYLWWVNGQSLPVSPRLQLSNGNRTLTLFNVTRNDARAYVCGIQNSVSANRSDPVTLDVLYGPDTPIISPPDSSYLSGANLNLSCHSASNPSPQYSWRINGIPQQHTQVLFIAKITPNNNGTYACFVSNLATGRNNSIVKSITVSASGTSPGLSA
Nature of the assay: flow cytometry on CEA-expressing MKN45 cells. (In general: Flow cytometry measures light scatter and fluorescence of single cells or particles in a stream.)
Experimental: Cells were harvested, counted, checked for viability and re-suspended at 2×10⁶ cells/ml in FACS buffer (100 μl PBS 0.1% BSA). […] Binding curves and EC50 values were obtained and calculated using GraphPadPrism5.

In assay [2] the target is T2, human CD19 on B cell lymphoma and leukemia cell lines (human, UniProt P15391 20-556).
T2 construct: also called SU-DHL-8; Nalm6
T2 sequence: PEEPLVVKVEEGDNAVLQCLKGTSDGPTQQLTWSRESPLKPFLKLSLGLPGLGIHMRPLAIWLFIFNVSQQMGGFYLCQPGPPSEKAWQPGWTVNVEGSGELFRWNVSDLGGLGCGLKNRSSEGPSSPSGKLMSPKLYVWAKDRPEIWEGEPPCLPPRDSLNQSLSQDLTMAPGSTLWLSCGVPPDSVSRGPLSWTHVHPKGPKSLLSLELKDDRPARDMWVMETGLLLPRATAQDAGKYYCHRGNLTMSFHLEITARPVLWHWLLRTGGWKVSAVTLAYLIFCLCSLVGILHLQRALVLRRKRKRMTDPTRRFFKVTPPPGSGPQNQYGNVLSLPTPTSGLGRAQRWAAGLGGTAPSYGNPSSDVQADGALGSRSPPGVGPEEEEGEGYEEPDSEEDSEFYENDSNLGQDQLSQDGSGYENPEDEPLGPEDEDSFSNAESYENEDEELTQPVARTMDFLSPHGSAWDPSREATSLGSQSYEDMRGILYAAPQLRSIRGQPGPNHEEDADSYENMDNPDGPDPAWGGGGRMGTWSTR
The assay is described as follows: flow cytometry on SU-DHL-8 cells.
Experimental: (§1) Cells were washed once with 200 μL DPBS and pellets were resuspended. […] Cells were washed twice with 200 μL 4° C. FACS buffer and then resuspended in 50 μL/well DPBS containing 1% formaldehyde. The same or the next day cells were resuspended in 100 μL FACS-buffer and acquired using 5-laser LSR-FORTESSA® (BD Bioscience with DIVA software) or 3-laser Miltenyi Quant Analyzer 10 (Mitenyi Biotec) and Flow Jo (FlowJo X 10.0.7).

In assay [3] the target is T2, human CD19 on B cell lymphoma and …. Nature of the assay: flow cytometry on OCI-Ly18 cells.
Experimental: as §1
In assay [4] the target is T3, monomeric human CD19 antigen Fc(kih) fusion molecule (human, UniProt P0DOX5 223-449 = IgG part).
T3 construct: also called monomeric CD19-Fc; human CD19-Fc(kih)
Nature of the assay: SPR Biacore T200, captured via anti-human Fab, human CD19-Fc(kih) analyte. (In general: In SPR one partner is held on a chip, and binding of the other changes the refractive index at the surface.)
Experimental: Anti-human Fab antibody (Biacore, Freiburg/Germany) was directly coupled on a CM5 chip at pH 5.0 using the standard amine coupling kit (Biacore, Freiburg/Germany). The immobilization level was approximately 8000 RU. […] Recombinant human CD19-Fc(kih) was passed at a concentration range from 7.8 to 500 nM (2-fold dilution) with a flow of 30 μL/minutes through the flow cells over 120 seconds. The dissociation was monitored for 120/1800 seconds. Bulk refractive index differences were corrected for by subtracting the response obtained on reference flow cell.
Affinity constants for the interaction were determined by fitting to a 1:1 Langmuir binding.

The target in assay [5] is T4, human 4-1BB (CD137) on cells (human, UniProt Q07011 24-255).
T4 construct: whole, on cells; also called 4-1BB+CD8+; 4-1BB+CD4+
The assay is described as follows: flow cytometry, activated human PBMC, CD4+ T cells (panel title MFI CD4), PE anti-human IgG Fc secondary.
Text: Gates were set on living CD45+CD3+CD4+ or CD45+CD3+CD8+ T cells and MFI of PE-conjugated AffiniPure anti-human IgG IgG Fcγ-fragment-specific goat F(ab′)2 fragment were blotted against the titrated concentration of targeted split trimeric 4-1BB ligand Fc fusion variants.

The target in assay [6] is T2, human CD19 on B cell lymphoma and …. Nature of the assay: flow cytometry on Toledo cells.
Experimental: as §1
Assay [7] has the same target. Nature of the assay: flow cytometry on Nalm6 cells.
Experimental: as §1

T4 sequence (Q07011 24-255): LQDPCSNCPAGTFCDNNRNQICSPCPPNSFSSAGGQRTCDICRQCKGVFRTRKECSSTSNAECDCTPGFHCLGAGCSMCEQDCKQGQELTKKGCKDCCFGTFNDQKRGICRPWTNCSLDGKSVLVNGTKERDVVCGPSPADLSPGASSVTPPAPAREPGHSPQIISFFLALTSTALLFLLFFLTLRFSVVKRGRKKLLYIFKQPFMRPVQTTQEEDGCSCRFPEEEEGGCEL

B1: Humanized variant 1 of T84.66 IgG (T84.66-LCHA) (antibody, V domains shown)
VH: QVQLVQSGAEVKKPGSSVKVSCKASGFNIKDTYMHWVRQAPGQGLEWMGRIDPANGNSKYVPKFQGRVTITADTSTSTAYMELSSLRSEDTAVYYCAPFGYYVSDYAMAYWGQGTLVTVSS
VL: EIVLTQSPATLSLSPGERATLSCRAGESVDIFGVGFLHWYQQKPGQAPRLLIYRASNRATGIPARFSGSGSGTDFTLTISSLEPEDFAVYYCQQTNEDPYTFGQGTKLEIK
notes: IgG
For orientation: EC50 means the concentration needed to bring the measured effect to its halfway point. Read a high EC50 as a need for much substance. B1 gave an EC50 in assay [1] of 1.5 µg/mL.

B2: anti-CD19(8B8-018) huIgG1 PGLALA (control G) (antibody, V domains shown)
VH: QVQLVQSGAEVKKPGASVKVSCKASGYTFTDYIMHWVRQAPGQGLEWMGYINPYNDGSKYTEKFQGRVTMTSDTSISTAYMELSRLRSDDTAVYYCARGTYYYGSALFDYWGQGTTVTVSS
VL: DIVMTQTPLSLSVTPGQPASISCKSSQSLENPNGNTYLNWYLQKPGQSPQLLIYRVSKRFSGVPDRFSGSGSGTDFTLKISRVEAEDVGVYYCLQLTHVPYTFGQGTKLEIKR
What is called Kd is the concentration at which binding is half-saturated. What is called koff is the first-order rate constant of dissociation. A higher koff goes with a short-lived complex. As a reminder, the kon is the rate constant with which the complex forms. Lower therefore signals slower complex formation. Regarding B2, the EC50 in assay [2] is 90 pM; in assay [3] it was 70 pM; in assay [6], 60 pM; in assay [7], 100 pM. In assay [4], this molecule registered a Kd of 12300 pM. Also, the koff in assay [4] is 0.000261 s⁻¹. In assay [4], this molecule came in with a kon of 21200 M⁻¹ s⁻¹. Also, the binding result in assay [5] is “no binding (tested: about 300 nM)”.
